Entries after “also recorded” stand apart in the source; their conditions may differ. Like-named read-outs stand apart in the source and are kept apart here.
Columns and labels:
[1] = biological target: TrkA (Homo sapiens, UniProt P04629); assay: Off-chip Mobility Shift Assay, IC50 against TrkA kinase; format: biochemical; settings: ATP 75 μM, CSKtide 1000 nM
Procedure: The test compound was dissolved in dimethylsulfoxide (DMSO) and then the solution was further 25-fold diluted with assay buffer to make the final test compound solution. The conjugate was tested at the following concentrations: 30000 nM, 10000 nM, 3000 nM, 1000 nM, 300 nM, 100 nM, 30 nM, 10 nM, 3 nM and 1 nM.
The assay procedure is represented by an Off-chip Mobility Shift Assay (MSA) and is reported below:
IC50 value was calculated from concentration vs. % inhibition curves by fitting to a four parameter logistic curve.

[2] = Toxicokinetics (plasma levels) in 13 week dermal rabbit study; format: in vivo
Text: Blood samples were taken from each animal on Day 1 and Week 13 for toxicokinetic evaluations.

[3] = system: Sprague Dawley rats; assay: Acute intravenous toxicity study in rats; format: in vivo, rat
Procedure: The acute toxicity of the conjugate of Example 3 was investigated after intravenous administration (10 ml/kg in physiological saline) of a single dose to Sprague Dawley rats followed by a 14-day observation period.
A single group of 5 male and 5 female animals was dosed at 2000 mg/kg. Animals were dosed with the formulated test item at the selected level, just after its preparation, by injection into the tail vein using a hypodermic needle attached to a syringe of suitable capacity, at a dose volume of 10 ml/kg body weight. Throughout the study, all animals were checked twice daily.
Animals were examined for signs of reaction to treatment on dosing, approximately 30 min, 2 and 4 hours after dosing on day 1, then daily for a total of 14 days. Each animal was weighed on the day of allocation to study, on the day of dosing (day 1) and on days 2, 8 and 15. All animals were killed at the end of the observation period and subjected to necropsy examination.

[4] = system: mouse lymphoma L5178Y cells; assay: Preliminary cytotoxicity assay in L5178Y cells; format: cell-based
Procedure: A preliminary cytotoxicity assay was performed. Based on the solubility results, the test item was assayed at a maximum dose level of 5000 μg/ml both in the absence and presence of S9 metabolism. A wide range of lower dose levels were included in the treatment series: 2500, 1250, 625, 313, 156, 78.1, 39.1 and 19.5 μg/ml.

[5] = system: Escherichia coli WP2; assay: Photomutagenicity assay in bacteria (reverse mutation, UV light); format: cell-based; settings: up to 5000 μg/plate
Text: (§1) The test item was examined for photomutagenic activity by assaying for reverse mutation to prototrophy in the prokaryotic organisms, Salmonella typhimurium and Escherichia coli, after exposure to light.
(§2) The three S. typhimurium tester strains, TA1537, TA98 and TA100, and the E. coli tester strain, WP2, were used. The bacteria, co-plated with the test item in soft-agar, were irradiated with various doses of UV light.
(§3) The procedures adopted were developed by Ames et al., 1975 and revised by Maron and Ames, 1983.
(§4) The test item was used as a solution in sterile distilled water.
(§5) The test item was assayed in the toxicity test at a maximum dose level of 5000 μg/plate and at four lower concentrations spaced at approximately half-log intervals: 1580, 500, 158 and 50.0 μg/plate. Two widely-spaced UV doses were selected for each bacterial tester strain on the basis of the maximum tolerated dose.
(§6) Two independent experiments were performed using the plate incorporation method.
(§7) The test item was assayed at a maximum dose level of 5000 μg/plate and at four lower dose levels spaced by two-fold dilutions: 2500, 1250, 625 and 313 μg/plate. The prepared plates were exposed to the following UVA and UVB doses (Table 5): […]

[6] = system: Salmonella typhimurium TA1537, TA98 and TA100; assay: as above; format: cell-based; settings: up to 5000 μg/plate
Text: as §1, §2, §3, §4, §5, §6, §7

[7] = system: Balb/c 3T3 cells; format: cell-based; settings: for IC50 (neutral red uptake): up to 1000 μg/ml
Procedure: The potential in vitro phototoxicity of the test item was evaluated by the measurements of neutral red uptake for cellular toxicity on cultures of Balb/c 3T3 cells treated with different doses of the test item and exposed to UVA irradiation. Test item solutions were prepared using Earle's Balanced Salt Solution (EBSS).
A preliminary dose-range finding experiment in the presence (+UVA) and in the absence (−UVA) of light was undertaken in order to select appropriate dose levels for the main assays. The test item was assayed at a maximum dose level of 1000 μg/ml (the upper limit indicated in the study protocol) and at a wide range of lower dose levels: 500, 250, 125, 62.5, 31.3, 15.6 and 7.81 μg/ml. […] In this case the chemical is considered to be non-phototoxic. The same dose range was used for the main assay.
A main experiment was performed using the following dose levels: 1000, 500, 250, 125, 62.5, 31.3, 15.6 and 7.81 μg/ml.

[8] = rat, in vivo
Procedure: The purpose of this study was to evaluate the toxicity of the test item in rats after daily dermal administration (6 hours exposure) over a period of 13 weeks and to investigate possible recovery from any potential treatment-related effects over a period of 4 consecutive weeks. The toxicokinetic profile was also evaluated.
Three groups, each of 10 male and 10 female Sprague Dawley rats (cf. Table 1: male numbered with even numbers, female numbered with uneven numbers) received the test item by dermal application at dosages of 0.5, 2.5 and 5 mg/kg/day for 13 consecutive weeks (Table 1: group numbers 2-4). A fourth similarly constituted group received the vehicle alone (purified water) and acted as a control (Table 1: group number 1). Five additional animals for each sex were included in the high and control groups (Table 1: group numbers 4 and 1, respectively) for recovery assessment. In addition, 3 satellite groups for toxicokinetics, including 9 males and 9 females (Table 2: group numbers 5-8, respectively), and 1 control group, including 3 males and 3 females (Table 2: group number 5), were treated as the main groups for toxicokinetic evaluations.

[9] = system: New Zealand White Specific Pathogen Free (SPF) rabbits; settings: rabbit, in vivo
Procedure: (§8) Three groups, each of 6 male and 6 female New Zealand White Specific Pathogen Free (SPF) rabbits (cf. Table 3: male numbered with even numbers, female numbered with uneven numbers), received the test item by dermal application at dosages of 0.5, 2.5 and 5 mg/animal/day for 13 consecutive weeks (Table 3, group numbers 2-4, respectively). A fourth similarly constituted group received the vehicle alone (purified water) and acted as a control (Table 3, group number 1). Control and high dose groups (Table 3, group numbers 4 and 1, respectively). included 3 additional animals per sex for recovery assessment.
(§9) The following investigations were performed: daily clinical signs, body weight, food consumption, macroscopic observations of the treatment sites, clinical pathology investigations, terminal body weight, organ weight, post mortem macroscopic observations and histopathological examination.
(§10) The treatment sites were examined, each day, approximately 3 hours after the start of dosing. Irritation of the sites, when compared to the adjacent untreated skin, was assigned a numerical value according to the table below:

[10] = system: Sprague Dawley rats; assay: 13 week dermal toxicity study in rats with 4 week recovery
Procedure: The purpose of this study was to evaluate the toxicity of the test item in rats after daily dermal administration (6 hours exposure) over a period of 13 weeks and to investigate possible recovery from any potential treatment-related effects over a period of 4 consecutive weeks.
Three groups, each of 10 male and 10 female Sprague Dawley rats (cf. Table 1: male numbered with even numbers, female numbered with uneven numbers) received the test item by dermal application at dosages of 0.5, 2.5 and 5 mg/kg/day for 13 consecutive weeks (Table 1: group numbers 2-4). A fourth similarly constituted group received the vehicle alone (purified water) and acted as a control (Table 1: group number 1). Five additional animals for each sex were included in the high and control groups (Table 1: group numbers 4 and 1, respectively) for recovery assessment.
The treatment sites were examined each day, approximately 3 hours after the start of dosing. Irritation of the sites, when compared to the adjacent untreated skin, was assigned a numerical value according to the table below:

[11] = system: New Zealand White Specific Pathogen Free (SPF) rabbits; assay: 13 week dermal toxicity study in rabbits with 4 week recovery
Procedure: as §8, §9, §10

[12] = 0.5, 2.5 and 5 mg/kg/day dermal, 13 weeks
[13] = 0.5, 2.5 and 5 mg/animal/day dermal, 13 weeks

Sequence of TrkA (P04629 33-796): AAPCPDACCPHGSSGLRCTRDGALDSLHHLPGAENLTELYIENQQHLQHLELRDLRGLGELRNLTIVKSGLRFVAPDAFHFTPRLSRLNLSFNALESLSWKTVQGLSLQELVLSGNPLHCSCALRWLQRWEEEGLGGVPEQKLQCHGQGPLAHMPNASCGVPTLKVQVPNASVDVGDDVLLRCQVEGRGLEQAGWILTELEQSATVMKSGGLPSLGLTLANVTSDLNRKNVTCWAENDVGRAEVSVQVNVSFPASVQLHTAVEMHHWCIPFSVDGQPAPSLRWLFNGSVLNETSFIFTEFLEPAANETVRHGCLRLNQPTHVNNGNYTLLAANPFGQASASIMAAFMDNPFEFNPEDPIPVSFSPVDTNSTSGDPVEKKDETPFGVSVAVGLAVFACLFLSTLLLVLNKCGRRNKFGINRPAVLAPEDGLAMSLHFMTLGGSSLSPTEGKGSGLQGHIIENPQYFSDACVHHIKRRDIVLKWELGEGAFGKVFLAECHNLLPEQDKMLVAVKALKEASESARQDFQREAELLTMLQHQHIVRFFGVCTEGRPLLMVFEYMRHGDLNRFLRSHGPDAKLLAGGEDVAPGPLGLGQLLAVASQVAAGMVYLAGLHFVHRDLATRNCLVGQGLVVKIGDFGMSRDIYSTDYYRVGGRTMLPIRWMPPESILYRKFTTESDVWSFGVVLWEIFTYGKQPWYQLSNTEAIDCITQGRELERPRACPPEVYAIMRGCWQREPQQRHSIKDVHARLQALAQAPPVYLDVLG

With “oxazolidindionic conjugate of K252a with PEG (1892 MW) [test item]” the IC50 [1] was 0.202 µM, the accumulation ([2]; daily dermal administration over 13 weeks) was “no accumulation occurred” and the “absorption through the dermal route” value ([2]; rabbit plasma sample analyses) was “only minimally absorbed”. The absorption ([2]; week 13, dermal) was “Very low absorption”, the “internal abnormalities at necropsy” value ([3]; 2000 mg/kg i.v.) was “No internal abnormalities were detected” and the clinical signs ([3]; 2000 mg/kg i.v., all animals on the day of dosing) was “reduced activity and piloerection”. The “changes in body weight” value ([3]; 2000 mg/kg i.v., end of study) was “within the expected range”, the “abnormalities at the injection site” value ([3]; 2000 mg/kg i.v., tail vein) was “No abnormalities were observed at the injection site” and the mortality ([3]; 2000 mg/kg single intravenous dose, 14-day observation) was “No mortality occurred”. For the same substance, the local tolerance ([3]; injected into the tail vein at 2000 mg/kg) was “locally tolerated”, the toxic effect ([3]; single intravenous administration at 2000 mg/kg body weight) was “no toxic effect” and the relative survival ([4]; absence of S9, long treatment time, two higher concentrations, % of concurrent negative control) was “approximately 60%”. The relative survival ([4]; absence of S9, short treatment time, several concentrations, no dose relationship) was “slight reduction of relative survival”, the toxicity ([4]; presence of S9, up to 5000 μg/ml) was “no relevant toxicity was observed” and the “reverse mutation (revertant colonies) in the presence of UV light” value ([5]; UVA and UVB) was “did not induce two-fold increases in the number of revertant colonies; also recorded: does not induce reverse mutation”. For the same substance, the toxicity ([5]; any UV irradiation dose) was “No relevant toxicity was observed”, the “reverse mutation (revertant colonies) in the presence of UV light” value ([6]; UVA) was “did not induce two-fold increases in the number of revertant colonies; also recorded: does not induce reverse mutation” and the toxicity ([6]; any UV irradiation dose) was “No relevant toxicity was observed”. For the same substance, the “Photo Irritation Factor (PIF)” value [7] was “could not be calculated”, the “mean photo effect (MPE)” value [7] was 0.089 and the phototoxicity classification [7] was “non phototoxic”. The “IC50 (neutral red uptake)” value ([7]; main experiment, both curves (+UV and -UV)) was “no IC50 value”, the “IC50 (neutral red uptake)” value ([7]; preliminary dose-range finding, +UVA and -UVA) was “no IC50 value was calculable” and the “plasma levels / incidence of absorption” value [8] was “a lower incidence of absorption was detected”. For the same substance, the “macroscopic and microscopic observations” value [9] was “no treatment-related changes were noted”, the adverse effects ([10]; 0.5, 2.5 and 5 mg/kg/day) was “No adverse effects were seen at any of the dose levels” and the body weight [10, 12] was “No relevant differences in body weight were recorded”. For the same substance, the clinical signs [10, 12] was “no treatment-related clinical signs were observed”, the food consumption [10, 12] was “comparable to controls” and the mortality [10, 12] was “No treatment-related mortality occurred”. For the same substance, the “absolute and relative organ weights” value ([10]; 13 weeks dermal) was “No changes in absolute and relative organ weights of toxicological significance were observed”, the “clinical chemistry and urinalysis” value ([10]; 13 weeks dermal) was “No changes of toxicological significance were observed” and the “macroscopic and microscopic observations” value ([10]; 13 weeks dermal) was “No treatment-related changes were noted”. For the same substance, the terminal body weight ([10]; 13 weeks dermal) was “comparable between control and treated groups”, the “No Observed Adverse Effect Level (NOAEL)” value ([10]; daily dermal administration to rats, 13 weeks) was 5 mg/kg/day and the ophthalmic examination ([10]; end of the treatment period) was “No treatment-related lesions were detected”. The “irritation index at treated sites” value ([10]; erythema/oedema score 0-4, daily dermal, 13 weeks) was 0, the haematology ([10]; partial reversibility at end of recovery period) was “leucopenia observed in animals of high dose group and in females of medium dose group” and the adverse effects ([11]; 0.5, 2.5 and 5 mg/animal/day) was “No adverse effects were seen at any of the dose levels”. The clinical signs [11, 13] was “no treatment-related clinical signs were observed”, the mortality [11, 13] was “No treatment-related mortality occurred” and the “absolute and relative organ weight” value ([11]; 13 weeks dermal) was “no changes in absolute and relative organ weight of toxicological significance were observed”. For the same substance, the body weight ([11]; 13 weeks dermal) was “No relevant differences in body weight were recorded”, the food consumption ([11]; 13 weeks dermal) was “comparable to controls” and the “haematology and clinical chemistry” value ([11]; 13 weeks dermal) was “no changes of toxicological significance were recorded”. The terminal body weight ([11]; 13 weeks dermal) was “comparable between control and treated groups”, the “No Observed Adverse Effect Level (NOAEL)” value ([11]; daily dermal administration to rabbits, 13 weeks) was 5 mg/animal/day and the “irritation of treated sites (macroscopic observations)” value ([11]; daily dermal, 13 weeks) was “No signs of irritation were observed”. For the same substance, the ophthalmic examination ([11]; end of the treatment period) was “no treatment-related lesions were detected”.

Source: patent publication US8926955B2, “Synthesis of polymer conjugates of indolocarbazole compounds” (priority 2008, dated 2015)
